# Laboratory results taken from publication PMC6919976.
# Biological target: ribosomes isolated from wildtype CHO cells (hamster (endogenous in CHO))
substance,measurement,value
"GCN2, StrepII-tagged, purified from Sf9 cells (from UniProt Q9P2K8 1-1649) (enzyme)","rate of phosphorylation of eIF2α (2 µM) by GCN2 in vitro, with wildtype ribosomes against none",10 fold
